We go through four molecules from PMC11291478, “Molecular and structural basis of an ATPase-nuclease dual-enzyme anti-phage defense complex” (Cell Research, 2024).

Where “and” joins values, the source holds several entries; their conditions need not be identical. Equal values may be shown once.

For assay [1], the target named is T1, DUF4297–HerA complex (Escherichia coli, UniProt A0ABF7PQ56).
T1 construct: gene CG692_10950; co-expressed in E. coli BL21(DE3) from pET28a, His tag at N-terminus of DUF4297; about 1 MDa complex of 12 DUF4297 and 6 HerA; with DUF4297 domain-containing protein (dsDNA endonuclease Cap4-like domain-containing anti-phage protein)
T1 sequence (A0ABF7PQ56 1-571): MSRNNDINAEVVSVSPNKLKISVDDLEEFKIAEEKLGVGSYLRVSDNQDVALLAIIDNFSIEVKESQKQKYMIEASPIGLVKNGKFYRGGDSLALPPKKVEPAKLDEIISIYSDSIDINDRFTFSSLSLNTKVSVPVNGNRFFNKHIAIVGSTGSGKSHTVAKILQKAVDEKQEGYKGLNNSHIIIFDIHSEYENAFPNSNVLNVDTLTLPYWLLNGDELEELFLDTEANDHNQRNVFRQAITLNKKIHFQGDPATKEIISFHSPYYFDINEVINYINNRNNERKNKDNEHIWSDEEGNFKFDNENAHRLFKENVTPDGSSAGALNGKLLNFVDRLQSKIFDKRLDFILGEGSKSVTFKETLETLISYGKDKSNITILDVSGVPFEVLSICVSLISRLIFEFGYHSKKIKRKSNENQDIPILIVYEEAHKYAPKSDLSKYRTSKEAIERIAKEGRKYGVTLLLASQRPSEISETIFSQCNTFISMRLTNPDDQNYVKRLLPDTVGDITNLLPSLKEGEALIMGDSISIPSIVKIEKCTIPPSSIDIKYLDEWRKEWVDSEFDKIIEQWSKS
T1 sequence (A0ABF7PQ57 1-394 partner): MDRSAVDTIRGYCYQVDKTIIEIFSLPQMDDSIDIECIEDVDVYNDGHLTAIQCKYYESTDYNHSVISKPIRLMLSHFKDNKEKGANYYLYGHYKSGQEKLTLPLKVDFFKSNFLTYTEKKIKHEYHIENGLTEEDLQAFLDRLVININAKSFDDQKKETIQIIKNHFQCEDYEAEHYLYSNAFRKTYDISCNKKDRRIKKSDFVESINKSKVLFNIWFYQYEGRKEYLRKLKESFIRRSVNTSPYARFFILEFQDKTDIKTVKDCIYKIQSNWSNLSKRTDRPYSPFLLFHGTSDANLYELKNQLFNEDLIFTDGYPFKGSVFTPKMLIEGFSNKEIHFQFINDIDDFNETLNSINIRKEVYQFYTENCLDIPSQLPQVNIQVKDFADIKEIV
In words: cryo-EM structure. The note with it: with 59-bp dsDNA, 1 mM AMPPNP, 5 mM MgCl2; site at interface of RecA-like domains of adjacent HerA subunits; states 1 and 2. It is filed as binding.

Assay [2] addresses T1, DUF4297–HerA complex. In words: phosphate release, modified Baginski method. The conditions noted are these: 5 nM complex, 20 mM Tris-HCl pH 8.0, 50 mM NaCl, 5 mM MgCl2, 5 mM DTT, 37 °C. The assay is classed as biochemical.
Assay [3] addresses DUF4297. In words: AUC; sedimentation velocity, 55,000 rpm, 4 °C, ~1 mg/mL, 20 mM Tris-HCl pH 8.0, 500 mM NaCl.
The target in assay [4] is DUF4297.
In assay [5] the target is HerA. The experiment in a line: cryo-EM structure; HerA alone, ~1.0 mg/mL, 3.14 Å.
The target of assay [6] is DUF4297. In words: cryo-EM structure; co-expressed and purified DUF4297–HerA complex without nucleotide or DNA, ~1.0 mg/mL, C2 symmetry imposed, 2.87 Å.
Assay [7] concerns the target HerA. The description is as above.
In assay [8] the target is HerA. The experiment in a line: cryo-EM structure; purified DUF4297–HerA complex with 1 mM AMPPNP, 5 mM MgCl2 and 59-bp dsDNA (1:1.2); state 1 at 2.73 Å and state 2 at 2.92 Å.

What is called stoichiometry N is a count of units in the complex or per binding partner.

Take `Nc1ncnc2c1ncn2[C@@H]1O[C@H](COP(=O)(O)OP(=O)(O)NP(=O)(O)O)[C@@H](O)[C@H]1O` [AMPPNP]: in assay [1], the cryo-EM structure result is “three DNA-engaged subunits A–C bind ATP (AMPPNP in the structure)”.
For the molecule `Nc1ncnc2c1ncn2[C@@H]1O[C@H](COP(=O)(O)OP(=O)(O)OP(=O)(O)O)[C@@H](O)[C@H]1O` [ATP], the “phosphate release, modified Baginski method” value in assay [2] was “the DUF4297–HerA complex exhibits a high turnover rate under the same testing condition”.
As for DUF4297 (enzyme), the stoichiometry N in assay [3] is 2.
As to HerA (enzyme), the fold decrease in dsDNA nuclease activity of DUF4297 alone against the DUF4297–HerA complex in assay [4] was 300 fold. For the same molecule, the stoichiometry N in assay [5] was 6 and 5; in assay [7], 6; in assay [8], 6. The stoichiometry N (DUF4297 per HerA) in assay [6] came to 2.
